Laboratory results as given in US6982249B1, “Bradykinin analogs as selective inhibitors of cell activation” (The Regents of the University of Michigan, priority 1997, dated 2006).
Entries after “also recorded” stand apart in the source; their conditions may differ.

What was measured:
[1] = test system: fibroblasts (thrombin receptor, PAR 1); assay: α-thrombin-induced calcium mobilization in fibroblasts; type: cell-based
Procedure: (§1) A variation of the calcium mobilization assay uses fibroblasts (which express a single receptor for thrombin, PAR 1), umbilical vein endothelial cells, or other cells which express the cloned thrombin receptor, and which grow in monolayers on the bottom of plastic wells.
(§2) Fibroblasts or endothelial cells were grown in 24-96 well plates and loaded with the fluorescent Ca^2+ indicator fura-2 acetyloxymethylester (5 μM, Molecular Probes Inc.) by incubation for 60 min. in HEPES-Tyrode's buffer at 37° C. After washing the cells, the fluorescence of the cells was monitored on a thermostatically controlled heated pad at 37° C. for 1 min, then the cells were incubated with α-thrombin (1 to 5 nM) in the absence or presence of a BK analog. Fluorescence was detected by a Perkin-Elmer LS-50B Luminescence Spectrofluorometer. Excitation was measured at 340 and 380 nm wavelength and emission was assessed at 510 nm. The cytosolic Ca^2+ levels were determined as described above. The Rmax value was determined using 10 mM Ca^2+ in the presence of 20 μM Ionophor A23187; Rmin was determined in the presence of 20 mM EDTA.
(§3) The ability of BK analogs to inhibit α-thrombin-induced calcium mobilization in fibroblasts and human umbilical vein endothelial cells (HUVEC) was assayed as described in Example 1C.

[2] = test system: human umbilical vein endothelial cells (HUVEC); assay: α-thrombin-induced calcium mobilization in HUVEC; type: cell-based
Procedure: as §1, §2, §3

[3] = test system: α-thrombin binding to platelets; assay: 125I-α-thrombin binding to platelets; settings: HK, LK, domain 3: molar excess

B1: HK: human high molecular weight kininogen (protein, UniProt P01042 19-644, looked up)
Kininogen-1: QESQSEEIDCNDKDLFKAVDAALKKYNSQNQSNNQFVLYRITEATKTVGSDTFYSFKYEIKEGDCPVQSGKTWQDCEYKDAAKAATGECTATVGKRSSTKFSVATQTCQITPAEGPVVTAQYDCLGCVHPISTQSPDLEPILRHGIQYFNNNTQHSSLFMLNEVKRAQRQVVAGLNFRITYSIVQTNCSKENFLFLTPDCKSLWNGDTGECTDNAYIDIQLRIASFSQNCDIYPGKDFVQPPTKICVGCPRDIPTNSPELEETLTHTITKLNAENNATFYFKIDNVKKARVQVVAGKKYFIDFVARETTCSKESNEELTESCETKKLGQSLDCNAEVYVVPWEKKIYPTVNCQPLGMISLMKRPPGFSPFRSSRIGEIKEETTVSPPHTSMAPAQDEERDSGKEQGHTRRHDWGHEKQRKHNLGHGHKHERDQGHGHQRGHGLGHGHEQQHGLGHGHKFKLDDDLEHQGGHVLDHGHKHKHGHGHGKHKNKGKKNGKHNGWKTEHLASSSEDSTTPSAQTQEKTEGPTPIPSLAKPGVTVTFSDFQDSDLIATMMPPISPAPIQSDDDWIPDIQIDPNGLSFNPISDFPDTTSPKCPGRPWKSVSEINPTTQMKESYYFDLTDGLS
modifications: high molecular weight kininogen
inhibition of α-thrombin-induced calcium mobilization in fibroblasts (FIG. 5) [1]: inhibited calcium mobilization; also recorded: inhibition | inhibition of α-thrombin-induced calcium mobilization in endothelial cells (FIG. 6) [2]: inhibited calcium mobilization; also recorded: inhibition | inhibition of 125-α-thrombin binding to platelets [3]: inhibit
